These results are taken from patent US20080085280A1.

Some results are limits rather than exact numbers.

The target of experiment [1] is FcαRIR209L/γ chimeric receptor (human) (UniProt P24071). The experiment in a line: cell-based or functional assay.
Experiment [2] has as its target wild-type human FcαRI (human) (UniProt P24071). As to the kind of experiment: cell-based or functional assay.

Take “anti-FcαRI Fab A77 (Fab fragment of anti-FcαRI mAb, IgG1κ, clone A77)”: the inhibition of IgE-mediated degranulation against irrelevant control Fab in experiment [1] came out at 91%. Besides, in experiment [2], the Fab concentration giving maximal inhibition of degranulation was in the range of 1 to 10 µg/mL; the inhibition of FcεRI-induced degranulation, 10 µg/ml Fab was above 50%; the inhibition of IgE-mediated degranulation (β-hexosaminidase release), 10 µg/ml Fab is 74%; the inhibition of IgE-mediated degranulation against irrelevant control Fab worked out at 72%. In experiment [2], this substance returned an inhibition of IgG-mediated phagocytosis of E. coli by human blood monocytes above 80%.
